Experimental data published in US20230303690A1 (published 2023).

B1: sdAb No. 2015 (VHH, part only)
VHH: QLQLVESGGGLAQTGGSLRLSCAAAGFTFDDTATGWFRQAPGKNREGVACISSSDGRIHYIDSAKGRFTISKDNAKKTVYLQMDSLKPEDTAVYYCAAARKGSTDCQGAIWGSWGQGTQVIVSS
modifications: possible Fc not stated
B2: sdAb No. 2018 (VHH, part only)
VHH: QVQLVESGGGLVQPGGSLKLSCTASGFTLDYYAIAWFRQAPGKEREAVSCISSSDGSTRYADSVKGRFTISRDNAKNTVYLQMNSLKPEDTAVYYCAADPYGDCRGPYDYWGQGTQVTVSS
modifications: possible Fc not stated
B3: sdAb No. 2093 (VHH, part only)
VHH: QVQLVESGGGLVQPGGSLTLSCVASGFTLDYYTVGWFRQVPGKEREGISCISSSDGSTRYADSVKGRFTISRDNAKNTMSLQMNSLKPEDTAVYYCATPGIHGTSCNTSWKYYGQGTQVTVSS
modifications: possible Fc not stated
B4: sdAb fusion 25-27-2 (Fc fusion, not shown: a dimerising Fc or GST)
chain: QLQLVESGGGLVQAGGSLRLSCAASGSIESFSFMGWYRQAPGKQRELVAGFTGAASLSFSTYTDAVKGRFTISRDNAKNTVYLQMNSLKPEDTAVYFCNVDPWSQSWPGRYWGQGTQVTVSSGGGGSGGGGSQVQLVESGGGLVQPGGSLRLSCAASGFTLDYYAIGWFRQAPGKEREGVSCIRSSDGSTYYADSVKGRFTISSDNTKNTVYLQMNSLKPEDTAVYYCATDRYSDCRGPYENWGQGTQVTVSSEPKSCDKTHTCPPCPAPELLG
B5: sdAb fusion 25-27-3 (Fc fusion, not shown: a dimerising Fc or GST)
chain: QLQLVESGGGLVQAGGSLRLSCAASGSIESFSFMGWYRQAPGKQRELVAGFTGAASLSFSTYTDAVKGRFTISRDNAKNTVYLQMNSLKPEDTAVYFCNVDPWSQSWPGRYWGQGTQVTVSSGGGGSGGGGSGGGGSQVQLVESGGGLVQPGGSLRLSCAASGFTLDYYAIGWFRQAPGKEREGVSCIRSSDGSTYYADSVKGRFTISSDNTKNTVYLQMNSLKPEDTAVYYCATDRYSDCRGPYENWGQGTQVTVSSEPKSCDKTHTCPPCPAPELLG
B6: sdAb fusion 25-17-1 (Fc fusion, not shown: a dimerising Fc or GST)
chain: QLQLVESGGGLVQAGGSLRLSCAASGSIESFSFMGWYRQAPGKQRELVAGFTGAASLSFSTYTDAVKGRFTISRDNAKNTVYLQMNSLKPEDTAVYFCNVDPWSQSWPGRYWGQGTQVTVSSGGGGSQLQLVESGGGLVQPGGSLRLSCAASGLTLDGYAIGWFRQAPGKEREGLACISGSDGSTHYLDSVKGRFTISRDNGKNTMALQMNSLQFGDTAIYYCAARRGSCSGSWTYWGQGTQVTVSS
B7: sdAb fusion 25-17-2 (Fc fusion, not shown: a dimerising Fc or GST)
chain: QLQLVESGGGLVQAGGSLRLSCAASGSIESFSFMGWYRQAPGKQRELVAGFTGAASLSFSTYTDAVKGRFTISRDNAKNTVYLQMNSLKPEDTAVYFCNVDPWSQSWPGRYWGQGTQVTVSSGGGGSGGGGSQLQLVESGGGLVQPGGSLRLSCAASGLTLDGYAIGWFRQAPGKEREGLACISGSDGSTHYLDSVKGRFTISRDNGKNTMALQMNSLQFGDTAIYYCAARRGSCSGSWTYWGQGTQVTVSSEPKSCDKTHTCPPCPAPELLG
B8: sdAb fusion 25-17-3 (Fc fusion, not shown: a dimerising Fc or GST)
chain: QLQLVESGGGLVQAGGSLRLSCAASGSIESFSFMGWYRQAPGKQRELVAGFTGAASLSFSTYTDAVKGRFTISRDNAKNTVYLQMNSLKPEDTAVYFCNVDPWSQSWPGRYWGQGTQVTVSSGGGGSGGGGSGGGGSQLQLVESGGGLVQPGGSLRLSCAASGLTLDGYAIGWFRQAPGKEREGLACISGSDGSTHYLDSVKGRFTISRDNGKNTMALQMNSLQFGDTAIYYCAARRGSCSGSWTYWGQGTQVTVSSEPKSCDKTHTCPPCPAPELLG

Target: human LAG3 expressed on cells (human) (UniProt P18627)
Assay: cell-based or functional assay

human LAG3 expressed on cells (human), sequence (P18627 23-525): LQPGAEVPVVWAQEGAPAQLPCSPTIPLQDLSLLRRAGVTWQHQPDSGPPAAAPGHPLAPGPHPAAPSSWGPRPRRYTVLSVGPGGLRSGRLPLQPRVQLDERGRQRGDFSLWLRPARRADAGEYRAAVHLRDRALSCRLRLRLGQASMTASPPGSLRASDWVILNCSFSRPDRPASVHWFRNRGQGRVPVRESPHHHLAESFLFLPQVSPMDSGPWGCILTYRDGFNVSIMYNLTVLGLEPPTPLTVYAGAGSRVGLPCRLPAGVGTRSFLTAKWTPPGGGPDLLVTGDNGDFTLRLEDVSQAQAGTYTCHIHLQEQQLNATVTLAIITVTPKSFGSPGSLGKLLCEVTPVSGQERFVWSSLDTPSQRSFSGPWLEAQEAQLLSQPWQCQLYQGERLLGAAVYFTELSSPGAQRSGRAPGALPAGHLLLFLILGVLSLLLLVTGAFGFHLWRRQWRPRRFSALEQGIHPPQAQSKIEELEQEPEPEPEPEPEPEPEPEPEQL

Row | Binder | IL-2, % of BMS, at 0.005080526 ug/mL | IL-2, % of BMS, at 0.015241579 ug/mL | IL-2, % of BMS, at 0.045724737 ug/mL | IL-2, % of BMS, at 0.137174211 ug/mL | IL-2, % of BMS, at 0.411522634 ug/mL | IL-2, % of BMS, at 1.234567901 ug/mL | IL-2, % of BMS, at 3.703703704 ug/mL | IL-2, % of BMS, at 11.11111111 ug/mL | IL-2, % of BMS, at 33.33333333 ug/mL | Efficacy (Normalized to BMS) | IL-2, % of BMS, at 0.001016105 ug/mL | IL-2, % of BMS, at 0.003048316 ug/mL | IL-2, % of BMS, at 0.009144947 ug/mL | IL-2, % of BMS, at 0.027434842 ug/mL | IL-2, % of BMS, at 0.082304527 ug/mL | IL-2, % of BMS, at 0.24691358 ug/mL | IL-2, % of BMS, at 0.740740741 ug/mL | IL-2, % of BMS, at 2.222222222 ug/mL | IL-2, % of BMS, at 6.666666667 ug/mL | IL-2, % of BMS, at 20 ug/mL | other results
1 | B1 | 0.0179% | 1.06% | 0.925% | 1.92% | 1.8% | 10.6% | 19.1% | 33.6% | 39.8% | – | – | – | – | – | – | – | – | – | – | – | IL-2, % of BMS, at 100 ug/mL: 46.6%
2 | B2 | 0.0212% | 5.32% | 2.83% | 9.41% | 15.3% | 22.8% | 28.6% | 34.6% | 36.9% | – | – | – | – | – | – | – | – | – | – | – | IL-2, % of BMS, at 100 ug/mL: 37%
3 | B3 | -0.00098% | -3.19% | 5.73% | 0.267% | 1.04% | 4% | 14.9% | 20% | 14.4% | – | – | – | – | – | – | – | – | – | – | – | IL-2, % of BMS, at 100 ug/mL: 22.2%
4 | B4 | – | – | – | – | – | – | – | – | – | 106% | 0.0147% | 3.76% | 5.39% | 11.1% | 6.04% | 17.2% | 62% | 114% | 123% | 124% | –
5 | B5 | – | – | – | – | – | – | – | – | – | – | 0.0673% | -5.25% | 2.64% | -8.9% | -0.289% | 3.53% | 17% | 58.4% | 120% | 168% | –
6 | B6 | – | – | – | – | – | – | – | – | – | 106% | 0.0133% | 4.1% | -0.836% | -2.73% | -5.85% | 6.88% | 34% | 82.7% | 89.2% | 110% | Jurkat T-hLAG3 Assay EC50: 10.9 nM
7 | B7 | – | – | – | – | – | – | – | – | – | 102% | -0.00048% | -2.52% | -0.621% | 12% | -7.68% | -2.21% | 16.4% | 77.7% | 85.1% | 111% | Jurkat T-hLAG3 Assay EC50: 14 nM
8 | B8 | – | – | – | – | – | – | – | – | – | 102% | 0.000639% | 5.71% | 7.44% | 8.91% | 11.7% | 12.1% | 28.9% | 62.8% | 93.2% | 103% | Jurkat T-hLAG3 Assay EC50: 18.4 nM
